{"source": "patent US9073976B2", "about": "“ND2 peptides and methods of treating neurological disease” (NoNO Inc., priority 2010, dated 2015)", "key": {"rats subjected to 3PVO": {"system": "rats subjected to 3PVO", "experiment": "Three pial vessel occlusion (3PVO) model of stroke, infarct volume", "type": "in vivo, rat", "conditions": "3 nmol/g intravenous one hour post-surgery; 24 hours after surgery; n=10", "description": "The efficacy of ND2 inhibitors in the treatment of stroke was examined using the three pial vessel occlusion (3PVO) model of stroke. This is a permanent model of stroke that creates small but consistent infarcts at 24 hours.\nMale Sprague Dawley rats (n=10 in each group) were surgically subjected to permanent occlusion of the pial vessels. One hour post-surgery, animals were given an intravenous injection of Saline, Tat-NR2B9c (Aarts et al, Science, 2002), Src 40-49-Tat or Tat-ND2 310-321 and allowed to further recover in their cages. 24 hours after surgery, brains were harvested, sliced and incubated with TTC to visualize the areas of infarction. The infarct volume of each animal was determined, as well as the average volumes for each group of ten.\nBoth peptides were myristoylated via an amide bond to the alpha-amino group of the N-terminal amino acid of the peptide.\nMale Sprague Dawley rats (n=10 in each group) weighing between 230 and 290 g were used for this study. Experiments were performed on fasted rats (Free overnight access to water but not food). For permanent three pial vessel occlusion (3PVO) was performed as described previously (Forder J et al., 2005, supra). In brief, rats were anesthetized with a 0.5 ml/kg intramuscular injection of ketamine (100 mg/kg), acepromazine (2 mg/kg), and xylazine (5 mg/kg), supplemented with one-third of the initial dose as required. An anal temperature probe was inserted, and the animal was placed on a heating pad maintained at 37° C. The skull was exposed via a midline incision and scraped free of tissue. Using a dissecting microscope and a pneumatic dental drill, a 6- to 8-mm cranial window was made over the right somatosensory cortex (2 mm caudal and 5 mm lateral to bregma) by drilling a rectangle through the skull and lifting off the piece of skull while keeping the dura intact. The 3 pial arteriolar middle cerebral artery branches around the barrel cortex were selected and electrically cauterized through the dura. After the cauterizations, the scalp was sutured. […]"}, "[1]": {"biological_target": "T1, NMDAR signaling complex in cultured hippocampal neurons (Rattus norvegicus, UniProt P11662+Q9WUD9)", "T1 construct": "endogenous in cells; host or cells: primary hippocampal neurons from E17/E18 Wistar rats, 14 DIV", "experiment": "Co-immunoprecipitation from cultured hippocampal neurons", "type": "cell-based", "conditions": "IP anti-NR2B; 1 uM for 1 hour or 3 uM for 2 hours", "description": "We next examined the effect of Tat-ND2 310-321 and Src40-49-Tat on the association of proteins in the NMDAR signaling complex in cultured hippocampal neurons at 14DIV. Neurons were treated with Tat-ND2 310-321 or Src40-49 at 1 uM for 1 hour (FIG. 13A) or at 3 uM for 2 hours (FIG. 13B). Cell lysates were purified and immunoprecipitated with anti-NR2B (left) and then stained with anti NR2B, anti-PSD95, anti-Src and anti-ND2 antibodies.\nNMDAR and its associated proteins were prepared from cultured hippocampal (HP) neurons or rat brains. For in vitro competition experiments, two week HP neurons were collected after treatment with Src 40-49-Tat, Tat-ND2 310-321 or Tat peptides for 1 h at luM concentration or for 2 hours at 3 uM concentration then cells were quickly harvested and homogenized.\nLysates were incubated with Dynabeads protein G (Invitrogen) and selected antibodies for 30 minutes at room temperature. Isolated immunoprecipitates were resolved using SDS-PAGE and transferred to nitrocellulose membranes. The membranes were probed with selected detection antibodies, then stripped and reprobed with other detection antibodies."}, "NMDA currents": {"system": "NMDA currents", "conditions": "Liu et al. 2008; cited from earlier work"}, "[2]": {"biological_target": "T2, binding of biotinylated Src40-49 to Tat-ND2 310-321 (Homo sapiens, UniProt P03891)", "T2 construct": "10; Tat-ND2 310-321; […]", "T2 sequence (P03891 other isoform, or with tags, fused parts or gaps)": "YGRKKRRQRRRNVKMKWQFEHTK", "experiment": "Competition ELISA, binding of biotinylated Src40-49 to pre-coated Tat-ND2 310-321", "conditions": "FIG. 5E", "protocol": "Competition ELISAs were also performed. […] In a similar manner, ND2 constructs bearing amino acid sequences from the 300-321 region are able to act as inhibitors of the interaction between ND2 and Src."}, "[3]": {"biological_target": "T3, NMDA Receptor complex in rat brains subjected to 3PVO (Rattus norvegicus, UniProt P11662+Q9WUD9)", "T3 construct": "from tissue; host or cells: rat brain cortex (ipsilateral and contralateral hemispheres) after 3PVO ischemia", "experiment": "Co-immunoprecipitation from rat brains subjected to 3PVO stroke", "type": "in vivo", "conditions": "injection 1 hour post-surgery, harvest 2 hours post-surgery; compared with Tat-ND2 310-321", "description": "The status of these proteins was next examined in rat brains that had been subjected to a 3PVO stroke. After 3PVO ischemia, rodents were given either Tat-ND2 310-321 or saline via tail vein injection. At one hour post-surgery, the brains were quickly harvested and lysed. Following IP with anti NR2B antibodies, the membranes were incubated with anti phosphotyrosine antibodies, developed, and subsequently probed with anti Src, phosphorylated Src (pTys) and anti PSD95 antibodies. As an internal control, both the ipsilateral and contralateral hemispheres (I and C, respectively) were prepared.\nA second set of experiments was performed on animals subjected to 3PVO, modified such that the saline, Src 40-49-Tat or Tat-ND2 310-321 was administered by tail vein injection 1 hour post-surgery and the brains were harvested and lysed 2 hours post-surgery.\nFor in vivo experiments, one hour after 3PVO ischemia, rats were injected with indicated peptides or saline by intravenous tail vein. Two hours after surgery (one hour after administration of compounds), the selected cortex of the brain was quickly harvested and homogenized.\nLysates were incubated with Dynabeads protein G (Invitrogen) and selected antibodies for 30 minutes at room temperature. Isolated immunoprecipitates were resolved using SDS-PAGE and transferred to nitrocellulose membranes. […]"}, "[4]": {"system": "Formalin, CFA and peripheral nerve constriction pain models", "conditions": "Liu et al. 2008; cited from earlier work"}, "ND2 310-321": {"biological_target": "T4, ND2 310-321 (Homo sapiens, UniProt P03891)", "T4 construct": "7; NVKMKWQFEHTK", "experiment": "Dot blot of Src fragments probed with biotinylated ND2 310-321", "type": "binding", "conditions": "FIG. 5A", "protocol": "Src40-49-Tat indicate a fusion peptide in which the human HIV-1 tat protein transduction domain [[…]] […] (SEQ ID NO:10). […] The peptides were plated at a concentration of ˜5 uM."}, "[5]": {"system": "association of Src and ND2", "conditions": "Liu et al. 2008; cited from earlier work"}, "[6]": {"biological_target": "T5, ND2, Src, NMDAR subunits, and PSD95 in hippocampal neurons (Rattus norvegicus, UniProt P11662+Q9WUD9)", "T5 construct": "endogenous in cells; host or cells: primary hippocampal neurons from E17/E18 Wistar rats, 14 DIV", "experiment": "Immunocytochemistry colocalization in 14DIV hippocampal neurons", "type": "cell-based", "conditions": "1 uM peptide for 1 h, day 14 neurons", "protocol": "A series of experiments was performed to examine the localization of ND2, Src, NMDAR subunits, and PSD95 in hippocampal neurons by immunocytochemistry in the presence of Tat, Tat-ND2 310-321, or Src 40-49-Tat. Briefly, hippocampal neurons were isolated from embryonic day #17/E18 Wistar rats, and cultured in neurobasal media containing coverslips with B27 and glutamax. Cells were then treated for 1 hr with luM peptide before fixing by standard methods. Proteins were visualized using specific antibodies and secondary antibodies coupled to fluorescent molecules. Colocalization of fluorescence was calculated by merging the images in Photoshop and calculating the % colocalized between pairs as the total colocalized fluorescence clusters divided by the total number of clusters (e.g., % colocalized ND2 with Src=(total colocalized)/(total ND2 clusters); % colocalized Src with ND2=(total colocalized)/(total Src clusters)).\nHippocampal neurons cultured on coverslips were treated with 1 uM of Src 40-49-Tat, Tat-ND2 310-321 or Tat for 1 h at the day 14. Then neurons were incubated in 4% paraformaldehyde and 4% sucrose in phosphate-buffered saline (PBS) for 10 minutes followed by 5 minutes […] at room temperature (RT). Cells were permeabilized with 0.25% Triton X-100 in PBS for 5 minutes and by treatment with 5% donkey serum in PBS for 30 minutes at RT. The cultures were incubated with a mixture of the primary antibodies, raised in various species, in 0.25% Triton X-100 PBS for 2 hours at RT, washed, and incubated for 1 hour at RT with a mixture of species-specific secondary antibodies all raised in donkey and conjugated to either Texas Red, or FITC fluorophores (1:200 dilution in 0.25% Triton X-100 PBS). The coverslips were washed with PBS and mounted using ProLong Gold antifade reagent (Invitrogen). Images were collected using a 60× pan-fluor objective on a Nikon Eclipse TE 200 microscope. The images were analyzed with PhotoShop 7 (Adobe, San Jose, Calif.). Brightness and contrast were adjusted, sharpened using the unsharpen mask tool, and the images were merged for color colocalization.\nFor quantification of the colocalization, the maximum intensities of the fluorophore channels were normalized and the background fluorescence of each channel seen in the dendrites was subtracted, the color images were merged. Two clusters in two different channels were considered colocalizing when at least 66% of the surface of one clusters in one of the two channels overlapped with a clusters in the other channel. For each combination of antibodies, three independent immunofluorescence experiments were done. Each measurement was taken from a 50-m-long dendritic segment (with an average width of 2 m). Colocalization was expressed as the percent of the total clusters analyzed."}}}
{"sequence": "KPASADGHRGYGRKKRRQRRR [Src 40-49-Tat]", "values": [{"measurement": "reducing infarct volumes (statistical effect)", "setting": "rats subjected to 3PVO", "value": "not statistically effective"}, {"measurement": "association of NR2B with Src", "setting": "[1]", "value": "reduces the association of NR2B with Src"}, {"measurement": "NMDA currents", "setting": "NMDA currents", "value": "reduced NMDA currents"}, {"measurement": "inhibition of binding of biotinylated Src40-49 to Tat-ND2 310-321 (competition ELISA)", "setting": "[2]", "value": "inhibited"}, {"measurement": "uncoupling PSD95 and Src from the NMDA Receptor", "setting": "[3]", "value": "not nearly as effective"}, {"measurement": "effect on inflammatory and neuropathic pain", "setting": "[4]", "value": "beneficial effect"}, {"measurement": "binding of biotinylated ND2 310-321 (dot blot)", "setting": "ND2 310-321", "value": "bound ND2 310-321"}, {"measurement": "association of Src and ND2 in neuronal lysates", "setting": "[5]", "value": "disrupt the association of Src and ND2 in neuronal lysates"}, {"measurement": "association (colocalization) between ND2 and NR2B", "setting": "[6]", "value": "do not significantly affect"}, {"measurement": "colocalization between PSD95 and NR2B", "setting": "[6]", "value": "similarly disrupted"}, {"measurement": "colocalization of ND2 with PSD95", "setting": "[6]", "value": "reduces the colocalization of ND2 with PSD95"}, {"measurement": "colocalization of Src and ND2", "setting": "[6]", "value": "able to reduce the amount of colocalization of Src and ND2"}, {"measurement": "colocalization between NR2B and Src", "setting": "[6]; FIG. 10", "value": "able to reduce the colocalization"}, {"measurement": "colocalization between PSD95 and Src", "setting": "[6]; FIG. 11", "value": "able to reduce the colocalization"}]}
